Test results: paper PMC9396398, “Crystal structure of Ankyrin-G in complex with a fragment of Neurofascin reveals binding mechanisms required for integrity of the axon initial segment” (The Journal of Biological Chemistry, 2022)

B1: Nfasc 1198-1214 N1203A (peptide)
chain: GEGQFAEDGSFIGQYTV
B2: Nfasc 1198 to 1214 I1209Q (domain or fragment)
chain: GEGQFNEDGSFQGQYTV
B3: Nfasc 1198 to 1214 F1208Q (domain or fragment)
chain: GEGQFNEDGSQIGQYTV
B4: Nfasc 1198 to 1214 E1204A (domain or fragment, UniProt P97685 1198-1214, looked up)
chain: GEGQFNADGSFIGQYTV
notes: source: E. coli BL21 (DE3), purified (Ni-NTA, size-exclusion chromatography)
B5: Nfasc 1198 to 1214 Y1212E (domain or fragment, UniProt P97685 1198-1214, looked up)
chain: GEGQFNEDGSFIGQETV
notes: also called Y1212E phosphorylation mimic variant; source: E. coli BL21 (DE3), purified (Ni-NTA, size-exclusion chromatography)
B6: Nfasc 1198 to 1214 F1202Q (domain or fragment, UniProt P97685 1198-1214, looked up)
chain: GEGQQNEDGSFIGQYTV
notes: as for B4
B7: Nfasc 1198-1214 T1213A (peptide)
chain: GEGQFNEDGSFIGQYAV
B8: Nfasc 1198-1214 S1207A (peptide)
chain: GEGQFNEDGAFIGQYTV
B9: Nfasc 1198 to 1214 D1205A (domain or fragment)
chain: GEGQFNEAGSFIGQYTV
B10: Nfasc 1198 to 1214 D1205K (domain or fragment)
chain: GEGQFNEKGSFIGQYTV
B11: full-length Nfasc cytoplasmic tail (residues 1132-1240) (domain or fragment)
chain: KRSRGGKYPVREKKDVPLGPEDPKEEDGSFDYSDEDNKPLQGSQTSLDGTIKQQESDDSLVDYGEGGEGQFNEDGSFIGQYTVRKDKEETEGNESSEATSPVNAIYSLA
B12: Nfasc 1198 to 1214 WT (domain or fragment)
chain: GEGQFNEDGSFIGQYTV
B13: L1CAM (construct of the ITC assay) (domain or fragment)
chain: SDDSLADYGGSVDVQFNEDGSFIGQYSG
B14: NrCAM (domain or fragment)
chain: RRNKGGKYPVKEKEDAHADPEIQPMKEDDGTFGEYSDAEDHKPLKKGSRTPSDRTVKKEDSDDSLVDYGEGVNGQFNEDGSFIGQYSGKKEKEPAEGNESSEAPSPVNAMNSFV
B15: CHL1 (domain or fragment)
chain: IEIPSSVQQVPTIIKQSKVQVAFPFDEYFQIECEAKGNPEPTFSWTKDGNPFYFTDHRIIPSNNSGTFRIPNEGHISHFQGKYRCFASNKLGIAMSEEIEFIVPSVPKFPKEKIDPLEVEEGDPIVLPCNPPKGLPPLHIYWMNIELEHIEQDERVYMSQKGDLYFANVEEKDSRNDYCCFAAFPRLRTIVQKMPMKLTVNSSNSIKQRKPKLLLPPTESGSESSITILKGEILLLECFAEGLPTPQVDWNKIGGDLPKGRETKENYGKTLKIENVSYQDKGNYRCTASNFLGTATHDFHVIVEEPPRWTKKPQSAVYSTGSNGILLCEAEGEPQPTIKWRVNGSPVDNHPFAGDVVFPREISFTNLQPNHTAVYQCEASNVHGTILANANIDVVDVRPLIQTKDGENYATVVGYSAFLHCEFFASPEAVVSWQKVEEVKPLEGRRYHIYENGTLQINRTTEEDAGSYSCWVENAIGKTAVTANLDIRNATKLRVSPKNPRIPKLHMLELHCESKCDSHLKHSLKLSWSKDGEAFEINGTEDGRIIIDGANLTISNVTLEDQGIYCCSAHTALDSAADITQVTVLDVPDPPENLHLSERQNRSVRLTWEAGADHNSNISEYIVEFEGNKEEPGRWEELTRVQGKKTTVILPLAPFVRYQFRVIAVNEVGRSQPSQPSDHHETPPAAPDRNPQNIRVQASQPKEMIIKWEPLKSMEQNGPGLEYRVTWKPQGAPVEWEEETVTNHTLRVMTPAVYAPYDVKVQAINQLGSGPDPQSVTLYSGEDYPDTAPVIHGVDVINSTLVKVTWSTVPKDRVHGRLKGYQINWWKTKSLLDGRTHPKEVNILRFSGQRNSGMVPSLDAFSEFHLTVLAYNSKGAGPESEPYIFQTPEGVPEQPTFLKVIKVDKDTATLSWGLPKKLNGNLTGYLLQYQIINDTYEIGELNDINITTPSKPSWHLSNLNATTKYKFYLRACTSQGCGKPITEESSTLGEGSKGIGKISGVNLTQKTHPIEVFEPGAEHIVRLMTKNWGDNDSIFQDVIETRGREYAGLYDDISTQGWFIGLMCAIALLTLLLLTVCFVKRNRGGKYSVKEKEDLHPDPEIQSVKDETFGEYSDSDEKPLKGSLRSLNRDMQPTESADSLVEYGEGDHGLFSEDGSFIGAYAGSKEKGSVESNGSSTATFPLRA

Molecular target: T1, AnkG ANK repeats (residues 38-855, R1-24) (UniProt O70511 38-855)
T1 chain: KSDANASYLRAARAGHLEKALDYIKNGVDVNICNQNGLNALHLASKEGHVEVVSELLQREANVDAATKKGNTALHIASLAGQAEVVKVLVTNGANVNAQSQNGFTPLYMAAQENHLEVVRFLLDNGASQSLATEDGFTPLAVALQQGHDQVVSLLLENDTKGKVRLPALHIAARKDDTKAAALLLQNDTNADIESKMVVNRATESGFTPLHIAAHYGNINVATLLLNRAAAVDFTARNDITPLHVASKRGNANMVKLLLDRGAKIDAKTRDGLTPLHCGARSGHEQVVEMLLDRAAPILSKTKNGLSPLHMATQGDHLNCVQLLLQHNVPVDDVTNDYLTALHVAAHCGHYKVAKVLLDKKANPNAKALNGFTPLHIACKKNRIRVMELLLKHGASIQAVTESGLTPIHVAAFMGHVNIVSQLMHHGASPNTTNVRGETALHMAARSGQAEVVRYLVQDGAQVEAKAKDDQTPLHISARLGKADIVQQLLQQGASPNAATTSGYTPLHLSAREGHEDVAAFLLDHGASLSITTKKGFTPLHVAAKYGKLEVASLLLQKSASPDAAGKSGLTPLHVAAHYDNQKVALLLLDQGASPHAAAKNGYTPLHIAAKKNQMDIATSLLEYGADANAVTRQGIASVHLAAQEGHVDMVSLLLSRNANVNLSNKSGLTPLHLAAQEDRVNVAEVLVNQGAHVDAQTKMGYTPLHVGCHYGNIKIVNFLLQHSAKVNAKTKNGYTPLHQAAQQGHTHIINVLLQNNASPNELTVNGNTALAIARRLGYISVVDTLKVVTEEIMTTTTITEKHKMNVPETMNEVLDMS
Assay: ITC
Settings: not given

Row | Binder | Kd [nM]
1 | B1 | 260
2 | B2 | 1000
3 | B3 | 1400
4 | B4 | 9200
5 | B5 | 3200
6 | B6 | 7100
7 | B7 | 460
8 | B8 | 1200
9 | B9 | 1300
10 | B10 | 7700

The binders below were run against T2, AnkG ANK repeats (residues 38-855, R1-24) (UniProt O70511 38-855) (assay: ITC; VP-ITC at 25 °C; 50 mM Tris, 100 mM NaCl, 1 mM EDTA, 1 mM DTT, pH 7.8; Nfasc proteins (200 μM) in the syringe, AnkG proteins (20 μM) in the cell; one-site binding model). Settings: both partners purified.
T2 construct: Ankyrin-G (AnkG), ANK repeats R1-24, residues 38-855; In human Q12955 the same residues seem to stand 8 lower (I277 here = I269 there); Cloned into a modified pET32a vector; the tag is said to be removed only for the crystallisation proteins; also called AnkG R1-24; Ankyrin-G ankyrin repeats; source: E. coli BL21 (DE3), purified (Ni-NTA, size-exclusion chromatography)
T2 sequence (looked up): T1 chain

Row | Binder | fold decrease in binding affinity against Nfasc 1198 to 1214 WT [fold] | fold decrease in binding against Nfasc 1198 to 1214 WT [fold]
11 | B4 | ~27 | –
12 | B5 | – | ~9
13 | B6 | – | > 20

Molecular target: T1, AnkG ANK repeats (residues 38-855, …)
Assay: ITC
Settings: not given
Remark: another data set of the same source

Row | Binder | Kd [nM]
14 | B11 | 930
15 | B12 | 340

Molecular target: T1, AnkG ANK repeats (residues 38-855, …)
Assay: ITC
Settings: not given
Remark: another data set of the same source

Row | Binder | Kd [nM]
16 | B13 | 1100
17 | B14 | 700
18 | B15 | 900
